Laboratory results published in article PMC8112865, “In vitro reconstitution reveals major differences between human and bacterial cytochrome c synthases” (eLife, 2021).
Positions of bridges follow the written chain, without caps; N, C: chain ends. No end group written: not given here.

Target: T1, GST-HCCS (human holocytochrome c synthase, GST-tagged) (human, UniProt P53701 1-268)
T1 construct: human HCCS (holocytochrome c synthase), recombinant, from pGEX GST:HCCS; Carries non-covalent heme liganded to His154 (about 10% occupied as purified, about 30% after heme loading); also called holocyt c synthase; mitochondrial cyt c synthase
T1 sequence (looked up): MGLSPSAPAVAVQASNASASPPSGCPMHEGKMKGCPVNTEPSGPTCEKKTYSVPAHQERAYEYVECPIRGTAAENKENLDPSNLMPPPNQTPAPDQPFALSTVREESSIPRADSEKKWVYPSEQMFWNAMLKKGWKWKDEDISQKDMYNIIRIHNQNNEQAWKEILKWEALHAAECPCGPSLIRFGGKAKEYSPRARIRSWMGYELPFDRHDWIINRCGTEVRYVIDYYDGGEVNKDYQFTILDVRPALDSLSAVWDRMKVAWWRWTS
Assay: UV-vis absorption spectroscopy; anaerobic in vitro reaction of purified HCCS with peptide, 5 mM DTT, 37°C, 1 hr; reduced alpha peak at 552-555 nm read as heme-attached peptide still bound to HCCS (550 nm for a free heme-attached peptide)
Conditions: both partners purified

B1: heme-attached 16mer (product of the HCCS reaction) (peptide)
peptide: KGKKIFIMKCSQCHTV
modifications: linker 10-13 via heme; also: biotin label, position not given here
notes: stretch of cytochrome c with alpha helix 1 and CXXCH; The product of m6 in the HCCS reaction; source: synthetic peptide (RS-synthesis), heme attached in vitro by GST-HCCS
binding result: binds
